Substrate in data set [1]: O=C1CC(c2ccc(O)c(O)c2)Oc2c1c(O)cc(O)c2[C@@H]1C(=O)c2c(O)cc(O)cc2O[C@H]1c1ccc(O)cc1
The settings on record: Homo sapiens; 2 uM.
Description: Mixed-type inhibition of human tissue kallikrein-2 expressed in baculovirus infected insect cells using Abz-KLRSSQ-EDDnp as substrate assessed as substrate Km at 2 uM by Lineweaver-Burk plot analysis

Substrate in data set [2]: O=C1CC(c2ccc(O)c(O)c2)Oc2c1c(O)cc(O)c2[C@@H]1C(=O)c2c(O)cc(O)cc2O[C@H]1c1ccc(O)cc1
The settings on record: Homo sapiens; 4 uM.
Description: Mixed-type inhibition of human tissue kallikrein-2 expressed in baculovirus infected insect cells using Abz-KLRSSQ-EDDnp as substrate assessed as substrate Km at 4 uM by Lineweaver-Burk plot analysis

Substrate in data set [3]: O=C1CC(c2ccc(O)c(O)c2)Oc2c1c(O)cc(O)c2[C@@H]1C(=O)c2c(O)cc(O)cc2O[C@H]1c1ccc(O)cc1
The settings on record: Homo sapiens; 8 uM.
Description: Mixed-type inhibition of human tissue kallikrein-2 expressed in baculovirus infected insect cells using Abz-KLRSSQ-EDDnp as substrate assessed as substrate Km at 8 uM by Lineweaver-Burk plot analysis

Substrate in data set [4]: O=C1CC(c2ccc(O)c(O)c2)Oc2c1c(O)cc(O)c2[C@@H]1C(=O)c2c(O)cc(O)cc2O[C@H]1c1ccc(O)cc1
The conditions noted are these: Homo sapiens; 10 uM.
Description: Mixed-type inhibition of human tissue kallikrein-2 expressed in baculovirus infected insect cells using Abz-KLRSSQ-EDDnp as substrate assessed as substrate Km at 10 uM by Lineweaver-Burk plot analysis

Substrate in data set [5]: O=C1CC(c2ccc(O)c(O)c2)Oc2c1c(O)cc(O)c2[C@@H]1C(=O)c2c(O)cc(O)cc2O[C@H]1c1ccc(O)cc1
The settings on record: Homo sapiens; 2 uM. The source holds these as a separate data set.

Substrate in data set [6]: O=C1CC(c2ccc(O)c(O)c2)Oc2c1c(O)cc(O)c2[C@@H]1C(=O)c2c(O)cc(O)cc2O[C@H]1c1ccc(O)cc1
The settings on record: Homo sapiens; 4 uM. The source holds these as a separate data set.

Substrate in data set [7]: O=C1CC(c2ccc(O)c(O)c2)Oc2c1c(O)cc(O)c2[C@@H]1C(=O)c2c(O)cc(O)cc2O[C@H]1c1ccc(O)cc1
The settings on record: Homo sapiens; 8 uM. The source holds these as a separate data set.

Substrate in data set [8]: O=C1CC(c2ccc(O)c(O)c2)Oc2c1c(O)cc(O)c2[C@@H]1C(=O)c2c(O)cc(O)cc2O[C@H]1c1ccc(O)cc1
The conditions noted are these: Homo sapiens; 10 uM. The source holds these as a separate data set.

B1: Kallikrein-2 (Homo sapiens), P20151 (protein)
chain: MWDLVLSIALSVGCTGAVPLIQSRIVGGWECEKHSQPWQVAVYSHGWAHCGGVLVHPQWVLTAAHCLKKNSQVWLGRHNLFEPEDTGQRVPVSHSFPHPLYNMSLLKHQSLRPDEDSSHDLMLLRLSEPAKITDVVKVLGLPTQEPALGTTCYASGWGSIEPEEFLRPRSLQCVSLHLLSNDMCARAYSEKVTEFMLCAGLWTGGKDTCGGDSGGPLVCNGVLQGITSWGPEPCALPEKPAVYTKVVHYRKWIKDTIAANP
A word on the Km: it is the concentration of substrate that gives half-maximal velocity. As a reminder, the Vmax is the top rate of the reaction or transport when substrate is in excess. In the case of B1, the Km is 0.72 µM in data set [1], 0.81 µM in data set [2], 1.04 µM in data set [3] and 1.2 µM in data set [4]. The Vmax in data set [5] stood at 192 µM/s; in data set [6] it was 144 µM/s; in data set [7], 110 µM/s; in data set [8], 79 µM/s.

(Values after ChEMBL document CHEMBL3769311, “The natural flavone fukugetin as a mixed-type inhibitor for human tissue kallikreins” (Bioorg Med Chem Lett, 2016).)
